Source: article PMC12444171, “Chromatin remodeler BRD9 represses transcription of PPARα target genes, including CPT1A to suppress lipid metabolism” (Journal of Lipid Research, 2025)

Target: T1, BRD7-His (bromodomain-containing protein 7 with His tag) (human, UniProt Q9NPI1 1-651)
T1 construct: Bromodomain-containing protein 7, human; source: HEK293T, transfected, in lysate; for the pull-down purified from HEK293T cell lysates
T1 sequence (looked up): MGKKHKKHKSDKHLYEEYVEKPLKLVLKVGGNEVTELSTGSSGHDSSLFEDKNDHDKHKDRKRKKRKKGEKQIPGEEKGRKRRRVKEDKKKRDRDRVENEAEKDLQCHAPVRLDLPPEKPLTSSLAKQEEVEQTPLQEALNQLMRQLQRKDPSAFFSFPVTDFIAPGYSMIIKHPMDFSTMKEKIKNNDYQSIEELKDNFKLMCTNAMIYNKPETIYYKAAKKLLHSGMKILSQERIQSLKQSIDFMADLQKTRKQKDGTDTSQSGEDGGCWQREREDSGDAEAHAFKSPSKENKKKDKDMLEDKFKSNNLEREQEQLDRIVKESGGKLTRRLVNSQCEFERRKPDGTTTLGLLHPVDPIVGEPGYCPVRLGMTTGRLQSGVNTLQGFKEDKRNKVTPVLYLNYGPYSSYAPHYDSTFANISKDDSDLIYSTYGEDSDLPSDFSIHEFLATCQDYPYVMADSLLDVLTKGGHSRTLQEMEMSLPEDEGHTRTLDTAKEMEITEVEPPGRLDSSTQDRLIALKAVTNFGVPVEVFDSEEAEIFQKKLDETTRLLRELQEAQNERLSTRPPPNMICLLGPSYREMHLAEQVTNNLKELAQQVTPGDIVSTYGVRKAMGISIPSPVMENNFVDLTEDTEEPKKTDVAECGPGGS
Assay: co-IP; HEK293T cells co-transfected with FLAG-PPARα and BRD7-His or BRD9-His; lysate (0.3 M NaCl, 0.5% NP-40, pH 8.0) on anti-His tag antibody-Dynabeads Protein G, 2 h at room temperature; Western blot; in Fig. 5C the cells were treated with 30 μM WY-14643 and/or 40 μM BI-9564 for 48 h (interaction markedly attenuated)
Settings: partners not purified

binding result: binds
B1: FLAG-PPARα (peroxisome proliferator-activated receptor α with 3×FLAG) (natural protein, human, UniProt Q07869 1-468, looked up)
chain: MVDTESPLCPLSPLEAGDLESPLSEEFLQEMGNIQEISQSIGEDSSGSFGFTEYQYLGSCPGSDGSVITDTLSPASSPSSVTYPVVPGSVDESPSGALNIECRICGDKASGYHYGVHACEGCKGFFRRTIRLKLVYDKCDRSCKIQKKNRNKCQYCRFHKCLSVGMSHNAIRFGRMPRSEKAKLKAEILTCEHDIEDSETADLKSLAKRIYEAYLKNFNMNKVKARVILSGKASNNPPFVIHDMETLCMAEKTLVAKLVANGIQNKEAEVRIFHCCQCTSVETVTELTEFAKAIPGFANLDLNDQVTLLKYGVYEAIFAMLSSVMNKDGMLVAYGNGFITREFLKSLRKPFCDIMEPKFDFAMKFNALELDDSDISLFVAAIICCGDRPGLLNVGHIEKMQEGIVHVLRLHLQSNHPDDIFLFPKLLQKMADLRQLVTEHAQLVQIIKKTESDAALHPLLQEIYRDMY
modifications: acetylated lysine residue(s), positions not given
notes: the sites are not mapped; source: HEK293T, transfected (pcDNA3.1), in lysate; for the pull-down captured from lysate on anti-FLAG antibody-Dynabeads Protein G and washed; not shown: 3×FLAG, N-terminal, kept
